US20160136234A1

Experiments:
Assay in all cases: cell-based or functional assay
AMPKα2 (h) (human) = AMPKα2 (h) (human) (UniProt P54646)
Abl (H396P) (h) (human) = Abl (H396P) (h) (human) (UniProt P00519)
CDK2/cyclinA (h) (human) = CDK2/cyclinA (h) (human) (UniProt P24941)
EphA1 (h) (human) = molecular target: T1, EphA1 (h) (human) (UniProt P21709)
T1 sequence (looked up): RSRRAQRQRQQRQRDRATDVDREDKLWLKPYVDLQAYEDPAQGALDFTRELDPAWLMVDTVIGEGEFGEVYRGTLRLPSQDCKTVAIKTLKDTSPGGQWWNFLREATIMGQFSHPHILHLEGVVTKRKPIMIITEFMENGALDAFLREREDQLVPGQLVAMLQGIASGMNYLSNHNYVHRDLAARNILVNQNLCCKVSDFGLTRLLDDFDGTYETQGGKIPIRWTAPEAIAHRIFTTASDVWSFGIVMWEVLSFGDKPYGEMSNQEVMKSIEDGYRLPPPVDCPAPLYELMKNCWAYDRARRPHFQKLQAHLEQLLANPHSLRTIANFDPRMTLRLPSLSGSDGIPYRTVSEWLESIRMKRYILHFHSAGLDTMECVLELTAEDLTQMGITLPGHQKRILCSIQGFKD

EphB2 (h) (human) = EphB2 (h) (human) (UniProt P29323)
Fgr (h) (human) = Fgr (h) (human) (UniProt P09769)
Flt1 (h) (human) = molecular target: T2, Flt1 (h) (human) (UniProt P17948)
T2 sequence (looked up): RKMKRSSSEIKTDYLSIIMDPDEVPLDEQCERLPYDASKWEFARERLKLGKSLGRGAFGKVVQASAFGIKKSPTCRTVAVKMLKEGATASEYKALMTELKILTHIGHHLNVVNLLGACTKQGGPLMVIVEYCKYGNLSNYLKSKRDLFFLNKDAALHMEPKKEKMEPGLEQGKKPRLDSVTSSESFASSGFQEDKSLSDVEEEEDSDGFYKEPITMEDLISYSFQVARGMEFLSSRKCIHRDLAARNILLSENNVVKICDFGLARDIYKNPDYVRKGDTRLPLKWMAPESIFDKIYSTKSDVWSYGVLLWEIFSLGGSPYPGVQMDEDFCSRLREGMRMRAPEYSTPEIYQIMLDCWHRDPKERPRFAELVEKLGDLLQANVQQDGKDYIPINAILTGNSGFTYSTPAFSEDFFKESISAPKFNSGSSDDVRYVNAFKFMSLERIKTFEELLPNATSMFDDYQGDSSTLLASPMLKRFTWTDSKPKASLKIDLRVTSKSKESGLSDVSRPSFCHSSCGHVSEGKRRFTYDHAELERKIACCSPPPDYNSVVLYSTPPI

GSK3β (h) (human) = GSK3β (h) (human) (UniProt P49841)
HIPK1 (h) (human) = HIPK1 (h) (human) (UniProt Q86Z02)
JAK2 (h) (human) = JAK2 (h) (human) (UniProt O60674)
MLCK (h) (human) = molecular target: MLCK (h) (human)
Met(Y1248C) (h) (human) = Met(Y1248C) (h) (human) (UniProt P08581)
[1] = molecular target: Mitogen-Activated Protein Kinase-Activated Protein Kinase 2 (human) (UniProt P49137)
PAK4 (h) (human) = PAK4 (h) (human) (UniProt O96013)
PKCτ (h) (human) = molecular target: PKCτ (h) (human)
PRAK (h) (human) = PRAK (h) (human) (UniProt Q8IW41)
RIPK2 (h) (human) = RIPK2 (h) (human) (UniProt O43353)
TAO1 (h) (human) = molecular target: T3, TAO1 (h) (human) (UniProt Q7L7X3)
T3 sequence (looked up): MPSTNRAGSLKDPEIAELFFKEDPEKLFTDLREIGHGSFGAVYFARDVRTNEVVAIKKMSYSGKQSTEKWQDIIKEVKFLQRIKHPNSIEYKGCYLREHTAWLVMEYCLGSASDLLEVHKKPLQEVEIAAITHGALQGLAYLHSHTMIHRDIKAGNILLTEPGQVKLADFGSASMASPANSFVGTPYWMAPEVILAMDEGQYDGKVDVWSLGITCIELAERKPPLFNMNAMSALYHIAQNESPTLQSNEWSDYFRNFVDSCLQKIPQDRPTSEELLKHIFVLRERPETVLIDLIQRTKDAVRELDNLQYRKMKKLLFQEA

[2] = molecular target: T4, Tec (h) activated (human) (UniProt P42680)
T4 sequence (looked up): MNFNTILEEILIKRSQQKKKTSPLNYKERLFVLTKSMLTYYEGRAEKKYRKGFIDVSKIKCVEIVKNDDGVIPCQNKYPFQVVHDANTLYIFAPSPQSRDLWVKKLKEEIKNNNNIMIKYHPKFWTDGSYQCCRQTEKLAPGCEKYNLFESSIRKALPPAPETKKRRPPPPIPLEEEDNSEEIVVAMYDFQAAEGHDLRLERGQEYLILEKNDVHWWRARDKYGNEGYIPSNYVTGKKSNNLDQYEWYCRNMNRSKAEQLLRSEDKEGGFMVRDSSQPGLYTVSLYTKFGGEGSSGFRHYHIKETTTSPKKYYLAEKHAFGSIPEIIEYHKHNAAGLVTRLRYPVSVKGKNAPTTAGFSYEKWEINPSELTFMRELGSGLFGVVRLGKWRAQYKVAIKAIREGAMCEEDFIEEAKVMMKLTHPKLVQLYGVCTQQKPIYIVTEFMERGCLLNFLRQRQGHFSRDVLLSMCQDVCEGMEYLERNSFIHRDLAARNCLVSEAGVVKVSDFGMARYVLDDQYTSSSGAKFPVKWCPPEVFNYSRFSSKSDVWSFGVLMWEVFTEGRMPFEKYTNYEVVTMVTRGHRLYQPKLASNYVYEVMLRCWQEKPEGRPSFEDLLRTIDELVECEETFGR

TrkA (h) (human) = TrkA (h) (human) (UniProt P04629)
WNK2 (h) (human) = WNK2 (h) (human) (UniProt Q9Y3S1)
WNK3 (h) (human) = WNK3 (h) (human) (UniProt Q9BYP7)
ZIPK (h) (human) = ZIPK (h) (human) (UniProt O43293)

Chain of Abl (H396P) (h) (human) (P00519 27-1130 H396P limits assumed): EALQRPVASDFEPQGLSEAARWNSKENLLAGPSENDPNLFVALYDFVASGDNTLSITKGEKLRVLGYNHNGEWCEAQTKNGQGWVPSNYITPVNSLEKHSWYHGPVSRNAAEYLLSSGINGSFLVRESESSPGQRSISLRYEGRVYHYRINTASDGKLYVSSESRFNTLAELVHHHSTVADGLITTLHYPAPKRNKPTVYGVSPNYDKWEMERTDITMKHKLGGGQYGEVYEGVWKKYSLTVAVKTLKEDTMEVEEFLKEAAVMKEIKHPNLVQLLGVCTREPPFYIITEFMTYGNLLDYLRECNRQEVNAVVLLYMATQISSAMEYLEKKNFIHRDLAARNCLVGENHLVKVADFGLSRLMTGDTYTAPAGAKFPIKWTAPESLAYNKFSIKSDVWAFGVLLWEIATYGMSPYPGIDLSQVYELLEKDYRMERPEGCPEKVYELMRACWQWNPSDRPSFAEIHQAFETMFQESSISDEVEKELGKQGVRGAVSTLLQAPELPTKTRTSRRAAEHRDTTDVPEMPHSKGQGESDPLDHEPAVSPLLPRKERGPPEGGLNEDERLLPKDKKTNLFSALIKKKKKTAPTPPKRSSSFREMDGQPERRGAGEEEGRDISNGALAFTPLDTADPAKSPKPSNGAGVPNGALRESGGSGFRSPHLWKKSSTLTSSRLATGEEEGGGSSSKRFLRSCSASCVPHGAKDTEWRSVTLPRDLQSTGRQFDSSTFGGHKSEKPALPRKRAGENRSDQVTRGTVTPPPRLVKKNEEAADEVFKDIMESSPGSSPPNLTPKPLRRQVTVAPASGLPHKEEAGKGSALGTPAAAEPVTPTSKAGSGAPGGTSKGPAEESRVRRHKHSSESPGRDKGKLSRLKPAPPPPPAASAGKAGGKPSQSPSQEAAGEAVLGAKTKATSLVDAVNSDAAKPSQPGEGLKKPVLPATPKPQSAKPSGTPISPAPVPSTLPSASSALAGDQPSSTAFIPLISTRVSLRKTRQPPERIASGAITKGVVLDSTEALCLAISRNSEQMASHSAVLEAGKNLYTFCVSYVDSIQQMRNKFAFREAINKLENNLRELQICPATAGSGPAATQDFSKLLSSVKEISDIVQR
Chain of RIPK2 (h) (human) (O43353 1-299 limits assumed): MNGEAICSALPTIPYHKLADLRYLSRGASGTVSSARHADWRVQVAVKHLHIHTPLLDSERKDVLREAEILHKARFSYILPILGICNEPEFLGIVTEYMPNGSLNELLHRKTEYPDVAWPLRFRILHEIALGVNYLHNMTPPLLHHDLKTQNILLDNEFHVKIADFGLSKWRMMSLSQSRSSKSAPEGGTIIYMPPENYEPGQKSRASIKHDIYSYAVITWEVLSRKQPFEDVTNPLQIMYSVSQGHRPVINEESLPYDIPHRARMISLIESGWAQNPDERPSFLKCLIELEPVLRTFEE
Chain of PRAK (h) (human) (Q8IW41 whole entry): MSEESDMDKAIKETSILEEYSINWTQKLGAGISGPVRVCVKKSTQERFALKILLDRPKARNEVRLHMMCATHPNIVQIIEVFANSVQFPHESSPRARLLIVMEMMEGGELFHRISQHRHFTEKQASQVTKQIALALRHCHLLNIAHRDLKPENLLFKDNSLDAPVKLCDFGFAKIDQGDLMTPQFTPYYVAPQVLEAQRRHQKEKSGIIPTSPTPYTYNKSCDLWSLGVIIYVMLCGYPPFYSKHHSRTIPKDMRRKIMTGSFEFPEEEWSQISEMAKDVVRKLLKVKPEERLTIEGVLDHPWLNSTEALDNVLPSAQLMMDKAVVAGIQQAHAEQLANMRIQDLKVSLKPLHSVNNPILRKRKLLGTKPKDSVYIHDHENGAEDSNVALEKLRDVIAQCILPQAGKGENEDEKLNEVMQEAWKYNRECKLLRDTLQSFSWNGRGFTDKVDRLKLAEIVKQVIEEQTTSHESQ
Chain of EphB2 (h) (human) (P29323 565-986 limits assumed): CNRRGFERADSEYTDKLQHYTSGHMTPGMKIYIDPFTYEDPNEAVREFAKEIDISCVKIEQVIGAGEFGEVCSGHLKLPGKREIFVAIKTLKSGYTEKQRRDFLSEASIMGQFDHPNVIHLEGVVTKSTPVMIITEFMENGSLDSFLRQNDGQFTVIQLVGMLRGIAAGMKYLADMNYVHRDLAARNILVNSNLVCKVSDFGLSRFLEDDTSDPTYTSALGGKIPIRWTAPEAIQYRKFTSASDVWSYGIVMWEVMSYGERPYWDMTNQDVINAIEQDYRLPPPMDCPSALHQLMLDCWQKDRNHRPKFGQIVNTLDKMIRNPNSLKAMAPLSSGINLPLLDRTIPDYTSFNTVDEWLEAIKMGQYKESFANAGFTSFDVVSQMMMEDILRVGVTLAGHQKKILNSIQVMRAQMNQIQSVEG

% activity at 100 µM (AMPKα2 (h) (human)): 54% | % activity at 100 µM (Abl (H396P) (h) (human)): 101% | % activity at 100 µM (CDK2/cyclinA (h) (human)): 86% | % activity at 100 µM (EphA1 (h) (human)): 73% | % activity at 100 µM (EphB2 (h) (human)): 18% | % activity at 100 µM (Fgr (h) (human)): 60% | % activity at 100 µM (Flt1 (h) (human)): 69% | % activity at 100 µM (GSK3β (h) (human)): 205% | % activity at 100 µM (HIPK1 (h) (human)): 74% | % activity at 100 µM (JAK2 (h) (human)): 133% | % activity at 100 µM (MLCK (h) (human)): 2% | % activity at 100 µM (Met(Y1248C) (h) (human)): 84% | % activity at 100 µM [1]: 5% | % activity at 100 µM (PAK4 (h) (human)): 94% | % activity at 100 µM (PKCτ (h) (human)): 68% | % activity at 100 µM (PRAK (h) (human)): 128% | % activity at 100 µM (RIPK2 (h) (human)): 97% | % activity at 100 µM (TAO1 (h) (human)): 82% | % activity at 100 µM [2]: 56% | % activity at 100 µM (TrkA (h) (human)): 25% | % activity at 100 µM (WNK2 (h) (human)): 64% | % activity at 100 µM (WNK3 (h) (human)): 77% | % activity at 100 µM (ZIPK (h) (human)): 28%
Substance: MMI-0300 (peptide)
